The text below walks through data of article PMC3836737, “Brd4 Is Displaced from HPV Replication Factories as They Expand and Amplify Viral DNA” (PLoS Pathogens, 2013).

Bounds are passed on as bounds.

This experiment concerns the target T1, Purified FLAG-tagged Brd4 (UniProt O60885 1-1362).
T1 construct: source: purified, described previously [13]
In words: pull-down. Particulars: one partner purified.

B1: HPV16 E2 I73L (natural protein)
chain: METLCQRLNVCQDKILTHYENDSTDLRDHIDYWKHMRLECAIYYKAREMGFKHINHQVVPTLAVSKNKALQALELQLTLETIYNSQYSNEKWTLQDVSLEVYLTAPTGCIKKHGYTVEVQFDGDICNTMHYTNWTHIYICEEASVTVVEGQVDYYGLYYVHEGIRTYFVQFKDDAEKYSKNKVWEVHAGGQVILCPTSVFSSNEVSSPEIIRQHLANHPAATHTKAVALGTEETQTTIQRPRSEPDTGNPCHTTKLLHRDSVDSAPILTAFNSSHKGRINCNSNTTPIVHLKGDANTLKCLRYRFKKHCTLYTAVSSTWHWTGHNVKHKSAIVTLTYDSEWQRDQFLSQVKIPKTITVSTGFMSI
modifications: 35S-labeled
notes: source: in vitro translated (TNT Coupled Reticulocyte Lysate System, Promega), 35S-labeled
As for B1, the “percent of wildtype E2 binding” value is < 20 % of wildtype E2 binding.

B2: HPV16 E2 R37K (natural protein)
chain: METLCQRLNVCQDKILTHYENDSTDLRDHIDYWKHMKLECAIYYKAREMGFKHINHQVVPTLAVSKNKALQAIELQLTLETIYNSQYSNEKWTLQDVSLEVYLTAPTGCIKKHGYTVEVQFDGDICNTMHYTNWTHIYICEEASVTVVEGQVDYYGLYYVHEGIRTYFVQFKDDAEKYSKNKVWEVHAGGQVILCPTSVFSSNEVSSPEIIRQHLANHPAATHTKAVALGTEETQTTIQRPRSEPDTGNPCHTTKLLHRDSVDSAPILTAFNSSHKGRINCNSNTTPIVHLKGDANTLKCLRYRFKKHCTLYTAVSSTWHWTGHNVKHKSAIVTLTYDSEWQRDQFLSQVKIPKTITVSTGFMSI
modifications: 35S-labeled
notes: as for B1
On to B2, for which the “percent of wildtype E2 binding” value is < 20 % of wildtype E2 binding.
